# Target: human FcγRIIIa type V (Val158) extracellular domain with C-terminal His tag (human, UniProt P08637 17-208)
# Experiment: SPR
# Chain of human FcγRIIIa type V (Val158) extracellular domain with C-terminal His tag (P08637 17-208 F176V): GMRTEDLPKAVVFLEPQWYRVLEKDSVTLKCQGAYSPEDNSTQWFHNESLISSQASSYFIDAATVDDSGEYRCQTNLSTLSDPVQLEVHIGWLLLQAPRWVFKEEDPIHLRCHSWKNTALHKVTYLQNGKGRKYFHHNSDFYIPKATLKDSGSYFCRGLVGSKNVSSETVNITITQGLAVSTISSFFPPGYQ
binder,measurement,value
"IL6R-BP552/IL6R-L (antibody, human IgG1, kappa) heavy: QVQLQESGPGLVKPSETLSLTCAVSGHSISHDHAWSWVRQPPGEGLEWIGFISYSGITNYNPSLQGRVTISRDNSKNTLYLQMNSLRAEDTAVYYCARSLARTTAMDYWGEGTLVTVSSASTKGPSVFPLAPSSKSTSGGTAALGCLVKDYFPEPVTVSWNSGALTSGVHTFPAVLQSSGLYSLSSVVTVPSSSLGTQTYICNVNHKPSNTKVDKKVEPKSCDKTHTCPPCPAPDLLGDDSVFLFPPKPKDTLMISRTPEVTCVVIDVAEEDGDVKFNWYVDGVEVHNAKTKPREEQDNSTYRVVSVLTVLHQDWLNGKEYKCKVSNKALPRPIEKTISKAKGQPREPQVYTLPPSRDELTKNQVSLTCLVKGFYPSDIAVEWESNGQPENNYKTTPPVLDSDGSFFLYSKLTVDKSRWQQGNVFSCSVMHEALHNHYTQESLSLSP light: not shown",Kd,30 µM
"IL6R-BP531/IL6R-L (antibody, human IgG1, kappa) heavy: QVQLQESGPGLVKPSETLSLTCAVSGHSISHDHAWSWVRQPPGEGLEWIGFISYSGITNYNPSLQGRVTISRDNSKNTLYLQMNSLRAEDTAVYYCARSLARTTAMDYWGEGTLVTVSSASTKGPSVFPLAPSSKSTSGGTAALGCLVKDYFPEPVTVSWNSGALTSGVHTFPAVLQSSGLYSLSSVVTVPSSSLGTQTYICNVNHKPSNTKVDKKVEPKSCDKTHTCPPCPAPDLLGDDSVFLFPPKPKDTLMISRTPEVTCVVIDVGEEDGEVKFNWYVDGVEVHNAKTKPREEQDNSTYRVVSVLTVLHQDWLNGKEYKCKVSNKALPRPIEKTISKAKGQPREPQVYTLPPSRDELTKNQVSLTCLVKGFYPSDIAVEWESNGQPENNYKTTPMVLDSDGSFFLYSKLTVDKSRWQQGNVFSCSVMHEALHNHYTQESLSLSP light: not shown",Kd,27 µM
"IL6R-BP535/IL6R-L (antibody, human IgG1, kappa) heavy: QVQLQESGPGLVKPSETLSLTCAVSGHSISHDHAWSWVRQPPGEGLEWIGFISYSGITNYNPSLQGRVTISRDNSKNTLYLQMNSLRAEDTAVYYCARSLARTTAMDYWGEGTLVTVSSASTKGPSVFPLAPSSKSTSGGTAALGCLVKDYFPEPVTVSWNSGALTSGVHTFPAVLQSSGLYSLSSVVTVPSSSLGTQTYICNVNHKPSNTKVDKKVEPKSCDKTHTCPPCPAPDLLGDDSVFLFPPKPKDTLMISRTPEVTCVVIDVGEEDGEVKFNWYVDGVEVHNAKTKPREEQDNSTYRVVSVLTVLHQDWLNGKEYKCKVSNKGLPRPIEKTISKAKGQPREPQVYTLPPSRDELTKNQVSLTCLVKGFYPSDIAVEWESNGQPENNYKTTPMVLDSDGSFFLYSKLTVDKSRWQQGNVFSCSVMHEALHNHYTQESLSLSP light: not shown",Kd,33 µM
"IL6R-BP553/IL6R-L (antibody, human IgG1, kappa) heavy: QVQLQESGPGLVKPSETLSLTCAVSGHSISHDHAWSWVRQPPGEGLEWIGFISYSGITNYNPSLQGRVTISRDNSKNTLYLQMNSLRAEDTAVYYCARSLARTTAMDYWGEGTLVTVSSASTKGPSVFPLAPSSKSTSGGTAALGCLVKDYFPEPVTVSWNSGALTSGVHTFPAVLQSSGLYSLSSVVTVPSSSLGTQTYICNVNHKPSNTKVDKKVEPKSCDKTHTCPPCPAPDLLGDDSVFLFPPKPKDTLMISRTPEVTCVVIDVAEEDGDVKFNWYVDGVEVHNAKTKPREEQYNSTYRVVSVLTVLHQDWLNGKEYKCKVSNKALPRPIEKTISKAKGQPREPQVYTLPPSRDELTKNQVSLTCLVKGFYPSDIAVEWESNGQPENNYKTTPPVLDSDGSFFLYSKLTVDKSRWQQGNVFSCSVMHEALHNHYTQESLSLSP light: not shown",Kd,20 µM
"IL6R-BP537/IL6R-L (antibody, human IgG1, kappa) heavy: QVQLQESGPGLVKPSETLSLTCAVSGHSISHDHAWSWVRQPPGEGLEWIGFISYSGITNYNPSLQGRVTISRDNSKNTLYLQMNSLRAEDTAVYYCARSLARTTAMDYWGEGTLVTVSSASTKGPSVFPLAPSSKSTSGGTAALGCLVKDYFPEPVTVSWNSGALTSGVHTFPAVLQSSGLYSLSSVVTVPSSSLGTQTYICNVNHKPSNTKVDKKVEPKSCDKTHTCPPCPAPELLGDDSVFLFPPKPKDTLMISRTPEVTCVVIDVGEEDGEVKFNWYVDGVEVHNAKTKPREEQYNSTYRVVSVLTVLHQDWLNGKEYKCKVSNKALPRPIEKTISKAKGQPREPQVYTLPPSRDELTKNQVSLTCLVKGFYPSDIAVEWESNGQPENNYKTTPPVLDSDGSFFLYSKLTVDKSRWQQGNVFSCSVMHEALHNHYTQESLSLSP light: not shown",Kd,36 µM
"IL6R-BP554/IL6R-L (antibody, human IgG1, kappa) heavy: QVQLQESGPGLVKPSETLSLTCAVSGHSISHDHAWSWVRQPPGEGLEWIGFISYSGITNYNPSLQGRVTISRDNSKNTLYLQMNSLRAEDTAVYYCARSLARTTAMDYWGEGTLVTVSSASTKGPSVFPLAPSSKSTSGGTAALGCLVKDYFPEPVTVSWNSGALTSGVHTFPAVLQSSGLYSLSSVVTVPSSSLGTQTYICNVNHKPSNTKVDKKVEPKSCDKTHTCPPCPAPELLGDDSVFLFPPKPKDTLMISRTPEVTCVVIDVAEEDGDVKFNWYVDGVEVHNAKTKPREEQYNSTYRVVSVLTVLHQDWLNGKEYKCKVSNKALPRPIEKTISKAKGQPREPQVYTLPPSRDELTKNQVSLTCLVKGFYPSDIAVEWESNGQPENNYKTTPPVLDSDGSFFLYSKLTVDKSRWQQGNVFSCSVMHEALHNHYTQESLSLSP light: not shown",Kd,24 µM
"IL6R-BP534/IL6R-L (antibody, human IgG1, kappa) heavy: QVQLQESGPGLVKPSETLSLTCAVSGHSISHDHAWSWVRQPPGEGLEWIGFISYSGITNYNPSLQGRVTISRDNSKNTLYLQMNSLRAEDTAVYYCARSLARTTAMDYWGEGTLVTVSSASTKGPSVFPLAPSSKSTSGGTAALGCLVKDYFPEPVTVSWNSGALTSGVHTFPAVLQSSGLYSLSSVVTVPSSSLGTQTYICNVNHKPSNTKVDKKVEPKSCDKTHTCPPCPAPDLLGDDSVFLFPPKPKDTLMISRTPEVTCVVIDVSEEDGEVKFNWYVDGVEVHNAKTKPREEQDNSTYRVVSVLTVLHQDWLNGKEYKCKVSNKALPRPIEKTISKAKGQPREPQVYTLPPSRDELTKNQVSLTCLVKGFYPSDIAVEWESNGQPENNYKTTPLVLDSDGSFFLYSKLTVDKSRWQQGNVFSCSVMHEALHNHYTQESLSLSP light: not shown",Kd,25 µM
"IL6R-BP532/IL6R-L (antibody, human IgG1, kappa) heavy: QVQLQESGPGLVKPSETLSLTCAVSGHSISHDHAWSWVRQPPGEGLEWIGFISYSGITNYNPSLQGRVTISRDNSKNTLYLQMNSLRAEDTAVYYCARSLARTTAMDYWGEGTLVTVSSASTKGPSVFPLAPSSKSTSGGTAALGCLVKDYFPEPVTVSWNSGALTSGVHTFPAVLQSSGLYSLSSVVTVPSSSLGTQTYICNVNHKPSNTKVDKKVEPKSCDKTHTCPPCPAPDLLGDDSVFLFPPKPKDTLMISRTPEVTCVVIDVSEEDGEVKFNWYVDGVEVHNAKTKPREEQDNSTYRVVSVLTVLHQDWLNGKEYKCKVSNKALPRPIEKTISKAKGQPREPQVYTLPPSRDELTKNQVSLTCLVKGFYPSDIAVEWESNGQPENNYKTTPMVLDSDGSFFLYSKLTVDKSRWQQGNVFSCSVMHEALHNHYTQESLSLSP light: not shown",Kd,26 µM
"IL6R-BP555/IL6R-L (antibody, human IgG1, kappa) heavy: QVQLQESGPGLVKPSETLSLTCAVSGHSISHDHAWSWVRQPPGEGLEWIGFISYSGITNYNPSLQGRVTISRDNSKNTLYLQMNSLRAEDTAVYYCARSLARTTAMDYWGEGTLVTVSSASTKGPSVFPLAPSSKSTSGGTAALGCLVKDYFPEPVTVSWNSGALTSGVHTFPAVLQSSGLYSLSSVVTVPSSSLGTQTYICNVNHKPSNTKVDKKVEPKSCDKTHTCPPCPAPELLGDDSVFLFPPKPKDTLMISRTPEVTCVVIDVAEEDGDVKFNWYVDGVEVHNAKTKPREEQDNSTYRVVSVLTVLHQDWLNGKEYKCKVSNKALPRPIEKTISKAKGQPREPQVYTLPPSRDELTKNQVSLTCLVKGFYPSDIAVEWESNGQPENNYKTTPPVLDSDGSFFLYSKLTVDKSRWQQGNVFSCSVMHEALHNHYTQESLSLSP light: not shown",Kd,30 µM

# From patent US20260217793A1 (Chugai, published 2026)
